Source: patent publication US20260125649A1, “MEDIUM COMPOSITION AND METHOD FOR CULTURING MESENCHYMAL STEM CELLS” (ACADEMIA SINICA, priority 2018, published 2026)
“And” between values parts separate entries of the source, which are not always exact repeats. Equal entries are not always repeated.

Assays:
[1] = tested on: TACE (Ser435), PS2 (Ser327), ERK1/2; test: Western blotting of phosphorylation of TACE, Presenilin 2 and ERK1/2; assay type: cell-based, human
Method: FIG. 9. EpEX induces the phosphorylation and activity of TACE and γ-secretase. MSCs were stimulated by EpEX for the indicated times, and the activity of TACE and γ-secretase were detected. MSCs were stimulated by EpEX (3 μg/mL) for the indicated times. Western blot analysis was performed to detect the phosphorylation of TACE and Presenilin 2.
FIG. 10. EpEX and EGF induce the phosphorylation of TACE, ERK1/2 and PS2. MSCs were treated with either EGF, EpEX, or co-treated with EGF and EpEX for 5 min. The phosphorylation of ERK1/2 was examined by Western blotting with specific antibodies. […] The phosphorylation of ERK1/2, TACE (Ser435), PS2 (Ser327) were examined by Western blotting with specific antibodies.
Western blotting was performed as previously described (Takahashi et al., 2003). Cells were lysed in lysis buffer (150 mM NaCl, 50 mM Tris-HCl (pH 7.4), 1% Nonidet P-40), containing a protease inhibitor mix (Roche Applied Science). Nuclear fractions and cytoplasmic fractions were separated by the Nuclear/Cytosol Fractionation Kit according to the manufacturer's instructions (BioVision Inc., Milpitas, CA, USA). Protein samples were separated by SDS-PAGE under denaturing conditions, and transferred to a PVDF membrane (Millipore). To probe for pluripotency markers, membranes were incubated with the indicated antibodies against Oct4 (1:1000, Abcam, Cambridge, UK), Nanog (1:1000, Genetex), Lin28 (1:1000, Genetex) or Sox2 (1:1000, Genetex). The CDK and cyclin antibodies were from the CDK and Cyclin Antibody Sampler Kits (Cell Signalling Technology, #9868 and #9869 respectively), including antibodies against cylin D1, D2, E1, and CDK4, CDK9 (1:1000). EpCAM (1:1000, Genetex), phospho-EGFR (1:1000, Cell signaling), EGFR (1:1000, Cell signaling), HMGA2 (1:1000, Cell signaling) or GAPDH (1:10000, Abcam) were also used. After incubation with primary antibody, the membranes were incubated with horseradish peroxidase (HRP)-conjugated secondary antibodies, goat anti-mouse IgG (1:3000, Santa Cruz, CA) or goat anti-rabbit IgG (1:3000, Santa Cruz, CA). […]

[2] = tested on: human bone marrow-derived MSCs; test: MSC doubling time (cell number counted); assay type: cell-based
Method: The proliferation of MSCs was examined by measuring doubling time. MSCs were treated with EpEX (3 μg/mL) for 24 and 48 h. Cell number was counted and then doubling time was calculated. MSCs were treated with EpEX (3 μg/mL) for the indicated times. After treatment, protein expression of cell cycle regulators (cyclin D1, cyclin D2, cyclin D3, cyclin E1, CDK4 and CDK9) and pluripotency factors (Oct4, Sox2, c-Myc, and Lin28) was examined by Western blotting.
All experiments with primary human cells were conducted in accordance with relevant guidelines and regulations. Human primary bone marrow mesenchymal stem cells (BMMSCs) were purchased from LONZA and were cultured with Dulbecco's Modified Eagle Media-low glucose (DMEM-LG) medium containing 16.6% FBS, 1 mM L-glutamine (Invitrogen), 100 μg/ml Penicillin/Streptomycin (Gibco). All cells were cultured at 37° C. and 5% CO2. All experiments on primary cells were performed within 10 passages.
We used human bone marrow-derived MSCs to study the effects of EpEX and first investigated whether EpEX promotes cell proliferation of MSCs. […] Next, we examined the effect of EpEX on cell cycle progression by flow cytometry with propidium iodide (PI) staining. […] EpCAM has been reported to enhance cell cycle progression through upregulation of the proto-oncogene c-Myc and cyclin A/E (Munz et al., 2004). […]

B1: EpEX: extracellular domain of human EpCAM, 265 amino acids in length (SEQ ID NO: 2) (protein, listed as Homo sapiens)
chain: MAPPQVLAFGLLLAAATATFAAAQEECVCENYKLAVNCFVNNNRQCQCTSVGAQNTVICSKLAAKCLVMKAEMNGSKLGRRAKPEGALQNNDGLYDPDCDESGLFKAKQCNGTSMCWCVNTAGVRRTDKDTEITCSERVRTYWIIIELKHKAREKPYDSKSLRTALQKEITTRYQLDPKFITSILYENNVITIDLVQNSSQKTQNDVDIADVAYYFEKDVKGESLFHSKKMDLTVNGEQLDLDPGQTLIYYVDEKAPEFSMQGLK
With B1 the “phosphorylation of TACE” value ([1]; EpEX 3 μg/mL) was “induced”, the “phosphorylation of γ-secretase (Presenilin 2)” value ([1]; EpEX 3 μg/mL) was “induced” and the “phosphorylation of ERK1/2” value ([1]; EpEX, EGFR-dependent) was “can induce”. The MSC doubling time ([2]; P3, EpEX 3 μg/mL (0 μg/mL: 17.6 ± 0.3 h)) was 16.1 ± 0.1 h and the MSC doubling time ([2]; P9, EpEX 3 μg/mL (0 μg/mL: 38.2 ± 1.7 h)) was 22.5 h and 22.5 ± 0.4 h.
